According to US20110021548A1, “INHIBITORS OF MALT1 PROTEOLYTIC ACTIVITY AND USES THEREOF” (priority 2007, published 2011):
Where a chain is given by its changes, count along the chain named. “Also recorded” adds a separate entry of the source. code Z = not defined here

B1: A. thaliana serpin (AT1g47710): Arabidopsis thaliana serpin (AT1g47710), indicated as serpin-wt (protein)
chain: MDVRESISLQNQVSMNLAKHVITTVSQNSNVIFSPASINVVLSIIAAGSAGATKDQILSFLKFSSTDQLNSFSSEIVSAVLADGSANGGPKLSVANGAWIDKSLSFKPSFKQLLEDSYKAASNQADFQSKAVEVIAEVNSWAEKETNGLITEVLPEGSADSMTKLIFANALYFKGTWNEKFDESLTQEGEFHLLDGNKVTAPFMTSKKKQYVSAYDGFKVLGLPYLQGQDKRQFSMYFYLPDANNGLSDLLDKIVSTPGFLDNHIPRRQVKVREFKIPKFKFSFGFDASNVLKGLGLTSPFSGEEGLTEMVESPEMGKNLCVSNIFHKACIEVNEEGTEAAAASAGVIKLRGLLMEEDEIDFVADHPFLLVVTENITGVVLFIGQVVDPLH
B2: IKLA-mutant: mutant serpin in which the reactive center loop has been replaced by the sequence IKLA (SEQ ID NO:16) (protein)
chain: B1 chain with R351A

Assays:
Assay in all cases: MALT1 paracaspase assay (Ac-LSSR-AMC cleavage, AMC release)
MALT1 [1] = biological target: T1, MALT1 (Homo sapiens, UniProt Q9UDY8); type: biochemical; conditions: recombinant MALT1 p20 fragment; substrate 100 μM; inhibitor 100 μM
T1 construct: made in house
T1 sequence (Q9UDY8 334-824): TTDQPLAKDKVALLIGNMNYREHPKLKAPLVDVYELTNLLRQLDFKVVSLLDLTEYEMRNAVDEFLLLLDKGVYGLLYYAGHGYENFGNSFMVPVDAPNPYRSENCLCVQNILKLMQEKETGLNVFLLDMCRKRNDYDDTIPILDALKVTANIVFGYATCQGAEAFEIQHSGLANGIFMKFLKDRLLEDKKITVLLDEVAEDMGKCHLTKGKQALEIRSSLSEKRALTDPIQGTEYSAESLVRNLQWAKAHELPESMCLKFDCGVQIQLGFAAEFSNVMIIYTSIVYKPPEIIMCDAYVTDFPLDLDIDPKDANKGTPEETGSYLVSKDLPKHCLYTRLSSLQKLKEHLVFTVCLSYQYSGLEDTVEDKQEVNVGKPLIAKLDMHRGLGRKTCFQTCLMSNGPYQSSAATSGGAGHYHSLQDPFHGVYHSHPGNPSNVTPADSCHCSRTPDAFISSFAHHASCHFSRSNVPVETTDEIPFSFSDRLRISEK

MALT1 [2] = biological target: T2, MALT1 (Homo sapiens, UniProt Q9UDY8); type: biochemical; conditions: bio-IP purified MALT1 from HEK-293T cells; substrate 100 μM; inhibitor 100 μM (equimolar)
T2 construct: made in house
T2 sequence (Q9UDY8 2-824): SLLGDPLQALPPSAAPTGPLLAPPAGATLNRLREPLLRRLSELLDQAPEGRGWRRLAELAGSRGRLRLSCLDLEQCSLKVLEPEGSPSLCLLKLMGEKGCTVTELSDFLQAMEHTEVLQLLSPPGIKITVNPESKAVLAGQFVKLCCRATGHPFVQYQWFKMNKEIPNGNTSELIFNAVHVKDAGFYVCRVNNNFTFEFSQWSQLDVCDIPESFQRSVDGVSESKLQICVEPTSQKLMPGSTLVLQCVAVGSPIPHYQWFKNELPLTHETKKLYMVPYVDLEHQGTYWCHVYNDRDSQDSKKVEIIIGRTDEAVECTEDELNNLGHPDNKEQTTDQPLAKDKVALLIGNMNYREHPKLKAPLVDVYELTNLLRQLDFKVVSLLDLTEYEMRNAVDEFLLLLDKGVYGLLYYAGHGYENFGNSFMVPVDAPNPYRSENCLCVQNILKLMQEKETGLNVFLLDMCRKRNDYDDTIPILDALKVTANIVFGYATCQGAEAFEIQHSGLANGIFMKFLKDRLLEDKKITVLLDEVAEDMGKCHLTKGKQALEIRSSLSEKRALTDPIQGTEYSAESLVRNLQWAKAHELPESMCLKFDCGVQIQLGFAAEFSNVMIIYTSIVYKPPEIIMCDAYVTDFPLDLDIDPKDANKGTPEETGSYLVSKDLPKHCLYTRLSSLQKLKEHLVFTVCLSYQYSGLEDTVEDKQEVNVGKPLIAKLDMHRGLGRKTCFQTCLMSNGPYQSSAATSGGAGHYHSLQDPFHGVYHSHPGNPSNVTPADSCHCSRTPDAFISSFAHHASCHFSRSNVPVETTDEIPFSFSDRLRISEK

MALT1 [3] = type: biochemical, human; conditions: for Inhibition of the MALT1 paracaspase activity by A. thaliana serpin: FIG. 11, several serpin concentrations

Row | Molecule | Inhibition of Ac-LSSR-AMC cleavage by recombinant MALT1 (MALT1 [1]) | Inhibition of Ac-LSSR-AMC cleavage by bio-IP purified MALT1 (MALT1 [2]) | Inhibition of the malt paracaspase activity in small compound screening (MALT1 [3]; FIG. 12, different concentrations) | Inhibition of the MALT1 paracaspase activity by A. thaliana serpin (MALT1 [3])
1 | Z-LSSR-CHO: peptide derivate (tetrapeptide LSSR, SEQ ID NO:1), inhibitor of MALT1 proteolytic activity, purchased from Anaspec ({code Z}-LSSR-aldehyde; reading uncertain; also: printed as Z-LSSR-CHO) | completely blocked | inhibits MALT1 proteolytic activity; also recorded: efficiently blocked | – | –
2 | Cc1ccc(-c2ccc(C=C3C(=O)NC(=S)NC3=O)o2)cc1Cl [Inh03, 5-{[5-(3-chloro-4-methylphenyl)-2-furyl]methylene}-2-thioxodihydro-4,6(1H,5H)-pyrimidinedione] | – | – | Inhibitory effect | –
3 | Z-GASR-CHO: peptide derivate (tetrapeptide GASR, SEQ ID NO:2), inhibitor of MALT1 proteolytic activity ({code Z}-GASR-aldehyde; reading uncertain; also: printed as Z-GASR-CHO) | completely blocked | efficiently blocked | – | –
4 | B1 | – | – | – | possible, but only at relatively high concentrations
5 | B2 | – | – | – | performing better than wild type serpin at higher concentrations
